Test results reported in patent US20180371083A1 (Merck Sharp & Dohme, published 2018).

T1: human TIGIT expressed on cells (CHO-K1 transfectants; Jurkat over-expressing human TIGIT) (human, UniProt Q495A1 25-244)
T1 sequence: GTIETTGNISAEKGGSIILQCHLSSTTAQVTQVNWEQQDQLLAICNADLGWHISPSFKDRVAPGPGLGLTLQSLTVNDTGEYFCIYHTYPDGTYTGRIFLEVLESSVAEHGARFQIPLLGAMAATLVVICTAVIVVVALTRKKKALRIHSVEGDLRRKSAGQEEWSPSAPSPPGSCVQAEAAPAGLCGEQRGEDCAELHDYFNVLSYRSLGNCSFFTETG

T2: human TIGIT-His protein (extracellular domain of human TIGIT fused to His tag) (human, UniProt Q495A1 25-141)
T2 construct: also called hTIGIT-His; hTIGIT-HIS
T2 sequence: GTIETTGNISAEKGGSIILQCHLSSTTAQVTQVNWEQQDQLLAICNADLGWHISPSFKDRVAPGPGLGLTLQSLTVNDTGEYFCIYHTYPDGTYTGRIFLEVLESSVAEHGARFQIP


What was measured:
[1] = target: T1, human TIGIT expressed on cells (CHO-K1 …); assay: cell-based or functional assay
[2] = target: T2, human TIGIT-His protein (extracellular …); assay: SPR, Biacore T200; antibody captured on anti-mouse IgG, human TIGIT-His as analyte; 1:1 Langmuir fit
Method: The kinetic binding activity of anti-human TIGIT antibodies 14D7 and 26B10 (made as described in Example 1) and of commercial antibody MBSA43 was measured by surface plasmon resonance using a Biacore T200 system (Biacore, GE Healthcare, Piscataway, N.J.). […] Mouse anti-human TIGIT clones, 14D7, 26B10 and MBSA43, were each injected over the immobilized anti-mouse surfaces at 1 μg/mL for a capture level of 40 RU. HBS-EP+ buffer (BR-1006-69) was used as the running buffer with a flow rate of 30 μL/min. Varying concentrations of human TIGIT-His protein, ranging from 0.29 nM to 40 nM, at a flow rate of 45 μL/min were injected over the antibody surfaces. Following each Mouse anti-human TIGIT injection cycle, the Series S CM5 chip surface was regenerated using one three-minute injection of 10 mM Glycine pH 1.7 at a flow rate of 10 μL/min.
Background subtraction binding sensorgrams were used for analyzing the rate constant of association (kₐ) and dissociation (kd), and the equilibrium dissociation constant KD. The resulting data sets were fitted with a 1:1 Langmuir Binding Model using the Biacore T200 evaluation software (version 2.0). Table 3 summarizes the affinities for the anti-human TIGIT antibodies to human TIGIT-His protein.

[3] = target: T1, human TIGIT expressed on cells (CHO-K1 …); assay: cell-based ELISA on CHO cells expressing human TIGIT (panel 'Binding to CHO-human TIGIT Cells')
[4] = target: T3, cynomolgous/rhesus TIGIT expressed on CHO-K1 cells (cynomolgous monkey / rhesus monkey); assay: cell-based ELISA on CHO cells expressing rhesus TIGIT (panel 'Binding to CHO-rhesus TIGIT Cells')
T3 construct: also called cyno/rhesus TIGIT; cyno/rhesus TIGIT-CHOK1 cells
T3 sequence (chain, as listed by the source): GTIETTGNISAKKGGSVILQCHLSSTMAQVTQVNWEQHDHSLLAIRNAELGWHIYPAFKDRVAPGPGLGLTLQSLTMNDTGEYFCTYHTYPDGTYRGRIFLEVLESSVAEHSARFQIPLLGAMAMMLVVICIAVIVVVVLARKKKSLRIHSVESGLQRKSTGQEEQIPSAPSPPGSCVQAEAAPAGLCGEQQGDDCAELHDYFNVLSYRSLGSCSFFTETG

[5] = target: T1, human TIGIT expressed on cells (CHO-K1 …); assay: cell-based ELISA blocking assay: binding of human CD155-huFc to CHO-hTIGIT cells in the presence of titrated antibody

Binder | EC50, rescue of IL-2 in hTIGIT-Jurkat / THP-1 co-culture with CD155-Fc or CD112-Fc [1] [ng/mL] | Kd [2] [nM] | EC50 (read off the curve) [3] [ng/mL] | EC50 (read off the curve) [4] [ng/mL] | IC50 (read off the curve) [5] [ng/mL]
mouse anti-human TIGIT antibody 14D7 (clone MEB125.14D7) (antibody, V domains shown, Mouse IgG1/kappa; also called 14D7 (mIgG1/K); MEB125.14D7.C1.C1) VH: EVKLEESGGGLVQPGGSMKLSCVASGFTFSGAWMDWVRQSPEKGLEWVAEIRTKVNNHATNYGESVKGRFTISRDDSKSSVYLQMNNLRAEDSGIYYCRGALYDGFYFDYWGQGTTLTVSS VL: QIVLTQSPAIMSASPGEKVNLTCSASSSVSSGYLYWYQQKPGSSPKLWIYGTSTLASGVPARFSGSGSGTSYSLTISNMEAEDAASYFCHQWSSFPYTFGGGTKLEMK | 170 | 0.0046 | ~0.06 | ~0.06 | ~80000
mouse anti-human TIGIT antibody 26B10 (clone MEB125.26B10) (antibody, V domains shown, Mouse IgG1/kappa; also called 26B10 (mIgG1/K)) VH: EVQLQQSGPELVKPGASVKISCKTSGYTFTEFTMHWVKQSHGKSLEWIGGLKPDNGGISYNQKFKGRATLAVDKSSNTAYMELRSLTSEDSAVYYCARGAYYRYDADYWGQGTTLTVSS VL: DIVLTQSHKFMSTSVGDRVSITCKASQDVKTAVAWYQQKSGQSPKLLIYSASYRNTGVPDRFTGSGSGTDFTFTIDSVQAEDLAVYFCQQHYSTPFTFGTGTKLELK | 190 | 0.14 | ~0.05 | ~0.04 | ~50000
